Earlier results as cited in paper PMC4464172.

Biological target: CAII (Homo sapiens) (UniProt P00918)
Experiment: isothermal titration calorimetry

In the case of NBCe1-A (from UniProt Q9Y6R1), the Kd is listed as 160 nM.
